Experiments:
[1] = biological target: BG505.MD39 native-like trimer (stabilized HIV Env gp140 ectodomain), sequence optimized, recombinant (HIV-1 (isolate BG505)); assay: SEC-MALS
[2] = biological target: BG505.MD39 native-like trimer (stabilized HIV Env gp140 ectodomain), sequence optimized, recombinant (HIV-1 (isolate BG505)); assay: native gel or EMSA
[3] = biological target: BG505.MD39 native-like trimer (stabilized HIV Env gp140 ectodomain), sequence optimized, recombinant (HIV-1 (isolate BG505)); assay: negative-stain EM
[4] = biological target: BG505.MD39 native-like trimer (stabilized HIV Env gp140 ectodomain), sequence optimized, recombinant (HIV-1 (isolate BG505)); assay: SEC
[5] = biological target: in vivo produced BG505.MD39 (DNA-encoded, pMD39_opt, in mouse muscle) (HIV-1 (isolate BG505)); assay: native gel or EMSA

| Substance | stoichiometry N [1] | stoichiometry N [2] | stoichiometry N [3] | stoichiometry N [4] | stoichiometry N [5] |
| --- | --- | --- | --- | --- | --- |
| BG505.MD39 native-like trimer (stabilized HIV Env gp140 ectodomain), sequence optimized, recombinant (complex) | 3 | 3 | 3 | 3 | – |
| in vivo produced BG505.MD39 (DNA-encoded, pMD39_opt, in mouse muscle) (complex) | – | – | – | – | 3 |

Source: publication PMC8816947
